Numbering of substitutions follows the chain as printed.

T1: recombinant human TL1A (human, UniProt O95150 71-251)
T1 construct: The ELISA method says only 'recombinant TL1A' coated on plates; homotrimeric cytokine; also called TNFSF15; recombinant TL1A
T1 chain: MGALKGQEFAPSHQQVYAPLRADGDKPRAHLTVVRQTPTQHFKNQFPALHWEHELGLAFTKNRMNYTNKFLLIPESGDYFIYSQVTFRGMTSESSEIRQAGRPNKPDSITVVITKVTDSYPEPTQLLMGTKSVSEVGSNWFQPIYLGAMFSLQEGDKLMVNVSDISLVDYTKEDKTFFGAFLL

B1: TL1A-0273 (antibody, human IgG1, kappa, V domains shown)
VH: QVQLVQSGAEVKKPGASVKVSCKASGYDFSYYGISWVRQAPGQGLEWMGWISTYNDNTHYAQKLQGRVTMTTDTSTSTAYMELRSLRSDDTAVYYCARESYYGSGAHRGGMDVWGQGTTVTVSS
VL: DIQMTQSPSSLSASVGDRVTITCRASQSVSSYLAWYQQKPGKAPKLLIYDASNRATGVPSRFSGSGSGTDFTLTISSLQPEDFATYYCQQRSNWPWTFGQGTKVEIKR
notes: human IgG1 effector-function-minimized / human kappa
B2: TL1A-0303 (antibody, human IgG1, kappa, V domains shown)
VH: B1 VH with S30T, S35G, D56T, N57G, Q62P, K63S
VL: B1 VL
notes: as for B1
B3: TL1A-0288 (antibody, human IgG1, kappa, V domains shown)
VH: B1 VH with S30T, I34V, D56T, N57G, Q62P, K63S, H107F
VL: B1 VL
notes: as for B1
B4: TL1A-0277 (antibody, human IgG1, kappa, V domains shown)
VH: B1 VH with D56T, N57G
VL: B1 VL
notes: as for B1
B5: TL1A-0283 (antibody, V domains shown)
VH: B1 VH with N55G, D56G, Q62P, K63S
VL: B1 VL
notes: IgG1 effector-minimized/kappa
B6: TL1A-0289 (antibody, human IgG1, kappa, V domains shown)
VH: B1 VH with S30T, I34V, D56T, N57G, Q62P, K63S
VL: B1 VL
notes: as for B1
B7: TL1A-0281 (antibody, human IgG1, kappa, V domains shown)
VH: B1 VH with D56T, Q62P, K63S
VL: B1 VL
notes: as for B1
B8: TL1A-0279 (antibody, human IgG1, kappa, V domains shown)
VH: B1 VH with D56T, N57V, Q62P, K63S
VL: B1 VL
notes: as for B1
B9: TL1A-0302 (antibody, V domains shown)
VH: B1 VH with S30T, S35G, D56T, N57G, Q62P, K63S, H107F
VL: B1 VL
notes: IgG1 effector-minimized/kappa
B10: TL1A-0287 (antibody, human IgG1, kappa, V domains shown)
VH: B1 VH with S30T, I34V
VL: B1 VL
notes: as for B1
B11: TL1A-0280 (antibody, human IgG1, kappa, V domains shown)
VH: B1 VH with D56T, Q62P, K63S, H107F
VL: B1 VL
notes: as for B1
B12: TL1A-0297 (antibody, V domains shown)
VH: B1 VH with S30T, I34V, N55G, D56G, Q62P, K63S
VL: B1 VL
notes: IgG1 effector-minimized/kappa
B13: TL1A-0305 (antibody, human IgG1, kappa, V domains shown)
VH: B1 VH with S30T, S35G, D56T, N57G
VL: B1 VL
notes: as for B1
B14: TL1A-0299 (antibody, V domains shown)
VH: B1 VH with S30T, S35G, Q62P, K63S
VL: B1 VL
notes: IgG1 effector-minimized/kappa
B15: TL1A-0284 (antibody, human IgG1, kappa, V domains shown)
VH: B1 VH with S30T, I34V, Q62P, K63S, H107F
VL: B1 VL
notes: as for B1
B16: TL1A-0294 (antibody, human IgG1, kappa, V domains shown)
VH: B1 VH with S30T, I34V, D56T, Q62P, K63S, H107F
VL: B1 VL
notes: as for B1
B17: TL1A-0282 (antibody, V domains shown)
VH: B1 VH with N55G, D56G, Q62P, K63S, H107F
VL: B1 VL
notes: IgG1 effector-minimized/kappa
B18: TL1A-0275 (antibody, human IgG1, kappa, V domains shown)
VH: B1 VH with D56T, N57G, Q62P, K63S
VL: B1 VL
notes: as for B1
B19: TL1A-0304 (antibody, human IgG1, kappa, V domains shown)
VH: B1 VH with S30T, S35G, D56T, N57G, H107F
VL: B1 VL
notes: as for B1
B20: TL1A-0278 (antibody, human IgG1, kappa, V domains shown)
VH: B1 VH with D56T, N57V, Q62P, K63S, H107F
VL: B1 VL
notes: as for B1
B21: TL1A-0274 (antibody, human IgG1, kappa, V domains shown)
VH: B1 VH with D56T, N57G, Q62P, K63S, H107F
VL: B1 VL
notes: as for B1
B22: TL1A-0300 (antibody, V domains shown)
VH: B1 VH with S30T, S35G, H107F
VL: B1 VL
notes: IgG1 effector-minimized/kappa
B23: TL1A-0306 (antibody, human IgG1, kappa, V domains shown)
VH: B1 VH with S30T, S35G, D56T, N57V, Q62P, K63S, H107F
VL: B1 VL
notes: as for B1
B24: TL1A-0285 (antibody, human IgG1, kappa, V domains shown)
VH: B1 VH with S30T, I34V, Q62P, K63S
VL: B1 VL
notes: as for B1
B25: TL1A-0276 (antibody, human IgG1, kappa, V domains shown)
VH: B1 VH with D56T, N57G, H107F
VL: B1 VL
notes: as for B1
B26: TL1A-0293 (antibody, human IgG1, kappa, V domains shown)
VH: B1 VH with S30T, I34V, D56T, N57V, Q62P, K63S
VL: B1 VL
notes: as for B1
B27: TL1A-0296 (antibody, V domains shown)
VH: B1 VH with S30T, I34V, N55G, D56G, Q62P, K63S, H107F
VL: B1 VL
notes: IgG1 effector-minimized/kappa
B28: TL1A-0290 (antibody, V domains shown)
VH: B1 VH with S30T, I34V, D56T, N57G, H107F
VL: B1 VL
notes: IgG1 effector-minimized/kappa
B29: TL1A-0301 (antibody, V domains shown)
VH: B1 VH with S30T, S35G
VL: B1 VL
notes: IgG1 effector-minimized/kappa
B30: TL1A-0295 (antibody, human IgG1, kappa, V domains shown)
VH: B1 VH with S30T, I34V, D56T, Q62P, K63S
VL: B1 VL
notes: as for B1
B31: TL1A-0292 (antibody, human IgG1, kappa, V domains shown)
VH: B1 VH with S30T, I34V, D56T, N57V, Q62P, K63S, H107F
VL: B1 VL
notes: as for B1
B32: TL1A-0298 (antibody, V domains shown)
VH: B1 VH with S30T, S35G, Q62P, K63S, H107F
VL: B1 VL
notes: IgG1 effector-minimized/kappa
B33: TL1A-0286 (antibody, human IgG1, kappa, V domains shown)
VH: B1 VH with S30T, I34V, H107F
VL: B1 VL
notes: as for B1

This test addresses T1, recombinant human TL1A. In words: competition ELISA on coated recombinant TL1A; competitor biotinylated TL1A-0002. As for the experimental part:
For this competition ELISA assay procedure, 96-well high binding plates (Corning, product number 3590) were coated with 1 μg/mL recombinant TL1A in 100 μL/well in Phospate Buffered Saline (PBS) overnight at 4° C. Plates were then blocked in PBS+0.02% casein solution and washed with PBS+0.05% Tween-20 following standard ELISA protocol. […] Plates were washed with PBS+0.05% Tween-20 following standard ELISA protocol, and Streptavidin-HRP (Southern Biotech, product number 7100-05) diluted to 1:10,000 in assay buffer was added to plates and incubated for 25-30 minutes at room temperature. Next, the plates were washed with PBS+0.05% Tween-20 following standard ELISA protocol, and then TMB substrate (BioFX Laboratories, catalog number TMBW-0100-01) was added to plates. Reactions were stopped after approximately 5 minutes by adding 0.18 M ortho-phosphoric acid to each well and absorbance was read at 450 nm.
Take B1: the “Bioactivity relative to TL1A-0002” value came out at 2.2 fold and the IC50 is 10.9 nM.
On to B2, for which the “Bioactivity relative to TL1A-0002” value stood at 3 fold and the IC50 worked out at 15 nM.
Consider B3, for which the “Bioactivity relative to TL1A-0002” value is 1.6 fold and the IC50 came to 8 nM.
Take B4: the “Bioactivity relative to TL1A-0002” value was 2 fold and the 50% inhibitory concentration (IC50) worked out at 10.2 nM.
Regarding B5, the “Bioactivity relative to TL1A-0002” value came to 48.9 fold and the IC50 was found to be 246 nM.
Turning to B6, the “Bioactivity relative to TL1A-0002” value was found to be 1.6 fold and the IC50 was found to be 7.9 nM.
Turning to B7, the “Bioactivity relative to TL1A-0002” value worked out at 2.6 fold and the IC50 stood at 13.1 nM.
Regarding B8, the “Bioactivity relative to TL1A-0002” value was determined as 2.1 fold and the IC50 came out at 10.5 nM.
B9: the “Bioactivity relative to TL1A-0002” value was 4 fold and the IC50 worked out at 20.4 nM.
Take B10: the “Bioactivity relative to TL1A-0002” value is 2 fold and the IC50 was 10.1 nM.
As for B11, the “Bioactivity relative to TL1A-0002” value amounted to 1.6 fold and the IC50 was 8.2 nM.
The matching figures for B12: 14.5 fold and 73.1 nM.
Regarding B13, the “Bioactivity relative to TL1A-0002” value is 2.9 fold and the IC50 stood at 14.5 nM.
In the case of B14, the “Bioactivity relative to TL1A-0002” value is 4.5 fold and the IC50 was 22.9 nM.
For B15, in that order: 2 fold and 10.3 nM.
For B16, in that order: 1.6 fold and 8 nM.
The matching figures for B17: 10.3 fold and 52.1 nM.
With B18, the “Bioactivity relative to TL1A-0002” value amounted to 1.8 fold and the IC50 came to 9 nM.
The matching figures for B19: 3 fold and 14.9 nM.
The matching figures for B20: 1.8 fold and 9.1 nM.
The matching figures for B21: 2 fold and 10.1 nM.
Take B22: the “Bioactivity relative to TL1A-0002” value was determined as 4.7 fold and the IC50 was 23.8 nM.
Consider B23, for which the “Bioactivity relative to TL1A-0002” value turned out to be 3.1 fold and the IC50 turned out to be 15.8 nM.
Consider B24, for which the “Bioactivity relative to TL1A-0002” value came to 1.7 fold and the IC50 amounted to 8.6 nM.
B25: the “Bioactivity relative to TL1A-0002” value was found to be 2.1 fold and the IC50 was determined as 10.6 nM.
Take B26: the “Bioactivity relative to TL1A-0002” value came to 1.9 fold and the IC50 is 9.7 nM.
As to B27, the “Bioactivity relative to TL1A-0002” value was found to be 17.3 fold and the IC50 turned out to be 87.3 nM.
For the molecule B28, the “Bioactivity relative to TL1A-0002” value turned out to be 4.2 fold and the IC50 amounted to 21 nM.
For B29, the “Bioactivity relative to TL1A-0002” value was 4.9 fold and the IC50 was 24.7 nM.
Turning to B30, the “Bioactivity relative to TL1A-0002” value was determined as 2.4 fold and the IC50 is 12.3 nM.
With B31, the “Bioactivity relative to TL1A-0002” value came out at 1.9 fold and the IC50 was found to be 9.6 nM.
Turning to B32, the “Bioactivity relative to TL1A-0002” value stood at 5 fold and the IC50 was found to be 25.3 nM.
The matching figures for B33: 2.3 fold and 11.6 nM.

Values taken from patent US20240059799A1 (Pfizer, published 2024).
